Source: FireProtDB (doi:10.1110/ps.062595707)
Values joined by “and” are separate entries in the source; they are usually repeats but may differ in a detail not shown here. Equal entries are not always repeated.

B1: Ribose import binding protein RbsB, P02925 (parent)
chain: MNMKKLATLVSAVALSATVSANAMAKDTIALVVSTLNNPFFVSLKDGAQKEADKLGYNLVVLDSQNNPAKELANVQDLTVRGTKILLINPTDSDAVGNAVKMANQANIPVITLDRQATKGEVVSHIASDNVLGGKIAGDYIAKKAGEGAKVIELQGIAGTSAARERGEGFQQAVAAHKFNVLASQPADFDRIKGLNVMQNLLTAHPDVQAVFAQNDEMALGALRALQTAGKSDVMVVGFDGTPDGEKAVNDGKLAATIAQLPDQIGAKGVETADKVLKGEKVQAKYPVDLKLVVKQ

Variants of: B1
Details: Escherichia coli (strain K12); pH 7; Thermal; CD; Phosphate 5 mM; structure 2DRI; whole UniProt chain shown

Variant	Tm	change of melting temperature, mutant - wild type (higher = more stable)
MNMKKLATLVSAVALSATVSANAMAKDTIALVVATLNNPFFVSLKDGAQKEADKLGYNLVVLDSQNNPAKELANVQDLTVRGTKILLINPTDSDAVGNAVKMANQANIPVITLDRQATKGEVVSHIAADNVLGGKIAGDYIAKKAGEGAKVIELQGAAGTSAARERGEGFQQAVAAHKFNVLASQPADFDRIKGLNVMQNLLTAHPDVQAVFAQNDEMALGALRALQTAGKSDVMVVGFDGTPDGEKAVNDGKLAATIAQLPDQIGAKGVETADKVLKGEKVQAKYPVDLKLVVKQ [S34A I157A S128A]	53.4 °C and 53.7 °C	–
MNMKKLATLVSAVALSATVSANAMAKDTIALVVATLNAPFFVSLKDGAQKEADKLGYNLVVLDSQNNPAKELANVQDLTVRGTKILLINPTDSDAVGNAVKMANQANIPVITLDRQATKGEVVSHIAADNVLGGKIAGDYIAKKAGEGAKVIELQGAAGTSAARERGEGFQQAVAAHKFNVLASQPADFDRIKGLNVMQNLLTAHPDVQAVFAQNDEMALGALRALQTAGKSDVMVVGFDGTPDGEKAVNDGKLAATIAQLPDQIGAKGVETADKVLKGEKVQAKYPVDLKLVVKQ [S34A I157A S128A N38A]	54.7 °C	-9 °C
MNMKKLATLVSAVALSATVSANAMAKDTIALVVATLNAPFFVSLKDGAQKEADKLGYNLVVLDSQNNPAKELANVQDLTVRGTKILLINPTDSDAVGNAVKMANQANIPVITLDRQATKGEVVSHIAADNVLGGKIAGDYIAKKAGEGAKVIELQGAAGTSAARERGEGFQQAVAAHKFNVLASQPADFDRIKGLNVMQNLLTAHPDVQAVFAQNDEMALGALRALQTAGKSDVMVVGFDGTPDGEKAVNDGKLAATIAALPDQIGAKGVETADKVLKGEKVQAKYPVDLKLVVKQ [S34A I157A S128A N38A Q260A]	59 °C	-4.7 °C
MNMKKLATLVSAVALSATVSANAMAKDTIALVVSTLNAPFFVSLKDGAQKEADKLGYNLVVLDSQNNPAKELANVQDLTVRGTKILLINPTDSDAVGNAVKMANQANIPVITLDRQATKGEVVSHIASDNVLGGKIAGDYIAKKAGEGAKVIELQGIAGTSAARERGEGFQQAVAAHKFNVLASQPADFDRIKGLNVMQNLLTAHPDVQAVFAQNDEMALGALRALQTAGKSDVMVVGFDGTPDGEKAVNDGKLAATIAQLPDQIGAKGVETADKVLKGEKVQAKYPVDLKLVVKQ [N38A]	58.2 °C and 60.1 °C	0.7 °C and -3.6 °C
MNMKKLATLVSAVALSATVSANAMAKDTIALVVSTLNNPAFVSLKDGAQKEADKLGYNLVVLDSQNNPAKELANVQDLTVRGTKILLINPTDSDAVGNAVKMANQANIPVITLDRQATKGEVVSHIASDNVLGGKIAGDYIAKKAGEGAKVIELQGIAGTSAARERGEGFQQAVAAHKFNVLASQPADFDRIKGLNVMQNLLTAHPDVQAVFAQNDEMALGALRALQTAGKSDVMVVGFDGTPDGEKAVNDGKLAATIAQLPDQIGAKGVETADKVLKGEKVQAKYPVDLKLVVKQ [F40A]	52.5 °C and 54.2 °C	-5 °C and -9.5 °C
MNMKKLATLVSAVALSATVSANAMAKDTIALVVSTLNNPFAVSLKDGAQKEADKLGYNLVVLDSQNNPAKELANVQDLTVRGTKILLINPTDSDAVGNAVKMANQANIPVITLDRQATKGEVVSHIASDNVLGGKIAGDYIAKKAGEGAKVIELQGIAGTSAARERGEGFQQAVAAHKFNVLASQPADFDRIKGLNVMQNLLTAHPDVQAVFAQNDEMALGALRALQTAGKSDVMVVGFDGTPDGEKAVNDGKLAATIAQLPDQIGAKGVETADKVLKGEKVQAKYPVDLKLVVKQ [F41A]	58.9 °C and 57.4 °C	–
MNMKKLATLVSAVALSATVSANAMAKDTIALVVSTLNNPFFVSLKDGAQKEADKLGYNLVVLDSQNNPAKELANVQDLTVRGTKILLIAPTDSDAVGNAVKMANQANIPVITLDRQATKGEVVSHIASDNVLGGKIAGDYIAKKAGEGAKVIELQGIAGTSAARERGEGFQQAVAAHKFNVLASQPADFDRIKGLNVMQNLLTAHPDVQAVFAQNDEMALGALRALQTAGKSDVMVVGFDGTPDGEKAVNDGKLAATIAQLPDQIGAKGVETADKVLKGEKVQAKYPVDLKLVVKQ [N89A]	52.9 °C	-4.6 °C
MNMKKLATLVSAVALSATVSANAMAKDTIALVVSTLNNPFFVSLKDGAQKEADKLGYNLVVLDSQNNPAKELANVQDLTVRGTKILLINPTDSDAVGNAVKMANQANIPVITLARQATKGEVVSHIASDNVLGGKIAGDYIAKKAGEGAKVIELQGIAGTSAARERGEGFQQAVAAHKFNVLASQPADFDRIKGLNVMQNLLTAHPDVQAVFAQNDEMALGALRALQTAGKSDVMVVGFDGTPDGEKAVNDGKLAATIAQLPDQIGAKGVETADKVLKGEKVQAKYPVDLKLVVKQ [D114A]	58.2 °C and 57.2 °C	–
MNMKKLATLVSAVALSATVSANAMAKDTIALVVSTLNNPFFVSLKDGAQKEADKLGYNLVVLDSQNNPAKELANVQDLTVRGTKILLINPTDSDAVGNAVKMANQANIPVITLDRQATKGEVVSHIAADNVLGGKIAGDYIAKKAGEGAKVIELQGIAGTSAARERGEGFQQAVAAHKFNVLASQPADFDRIKGLNVMQNLLTAHPDVQAVFAQNDEMALGALRALQTAGKSDVMVVGFDGTPDGEKAVNDGKLAATIAQLPDQIGAKGVETADKVLKGEKVQAKYPVDLKLVVKQ [S128A]	57.8 °C and 60.7 °C	0.3 °C and -3 °C
MNMKKLATLVSAVALSATVSANAMAKDTIALVVSTLNNPFFVSLKDGAQKEADKLGYNLVVLDSQNNPAKELANVQDLTVRGTKILLINPTDSDAVGNAVKMANQANIPVITLDRQATKGEVVSHIASDNVLGGKIAGDYIAKKAGEGAKVIELQGAAGTSAARERGEGFQQAVAAHKFNVLASQPADFDRIKGLNVMQNLLTAHPDVQAVFAQNDEMALGALRALQTAGKSDVMVVGFDGTPDGEKAVNDGKLAATIAQLPDQIGAKGVETADKVLKGEKVQAKYPVDLKLVVKQ [I157A]	57.3 °C and 61.2 °C	-0.2 °C and -2.5 °C
MNMKKLATLVSAVALSATVSANAMAKDTIALVVSTLNNPFFVSLKDGAQKEADKLGYNLVVLDSQNNPAKELANVQDLTVRGTKILLINPTDSDAVGNAVKMANQANIPVITLDRQATKGEVVSHIASDNVLGGKIAGDYIAKKAGEGAKVIELQGIAGTSAARERGEGFQQAVAAHKFNVLASQPADADRIKGLNVMQNLLTAHPDVQAVFAQNDEMALGALRALQTAGKSDVMVVGFDGTPDGEKAVNDGKLAATIAQLPDQIGAKGVETADKVLKGEKVQAKYPVDLKLVVKQ [F189A]	51.7 °C and 53.3 °C	-5.8 °C and -10.4 °C
MNMKKLATLVSAVALSATVSANAMAKDTIALVVSTLNNPFFVSLKDGAQKEADKLGYNLVVLDSQNNPAKELANVQDLTVRGTKILLINPTDSDAVGNAVKMANQANIPVITLDRQATKGEVVSHIASDNVLGGKIAGDYIAKKAGEGAKVIELQGIAGTSAARERGEGFQQAVAAHKFNVLASQPADFDRIKGLNVMQNLLTAHPDVQAVFAQADEMALGALRALQTAGKSDVMVVGFDGTPDGEKAVNDGKLAATIAQLPDQIGAKGVETADKVLKGEKVQAKYPVDLKLVVKQ [N215A]	49.4 °C and 51.5 °C	-8.1 °C and -12.2 °C
MNMKKLATLVSAVALSATVSANAMAKDTIALVVSTLNNPFFVSLKDGAQKEADKLGYNLVVLDSQNNPAKELANVQDLTVRGTKILLINPTDSDAVGNAVKMANQANIPVITLDRQATKGEVVSHIASDNVLGGKIAGDYIAKKAGEGAKVIELQGIAGTSAARERGEGFQQAVAAHKFNVLASQPADFDRIKGLNVMQNLLTAHPDVQAVFAQNDEMALGALRALQTAGKSDVMVVGADGTPDGEKAVNDGKLAATIAQLPDQIGAKGVETADKVLKGEKVQAKYPVDLKLVVKQ [F239A]	48 °C and 46 °C	–
MNMKKLATLVSAVALSATVSANAMAKDTIALVVSTLNNPFFVSLKDGAQKEADKLGYNLVVLDSQNNPAKELANVQDLTVRGTKILLINPTDSDAVGNAVKMANQANIPVITLDRQATKGEVVSHIASDNVLGGKIAGDYIAKKAGEGAKVIELQGIAGTSAARERGEGFQQAVAAHKFNVLASQPADFDRIKGLNVMQNLLTAHPDVQAVFAQNDEMALGALRALQTAGKSDVMVVGFAGTPDGEKAVNDGKLAATIAQLPDQIGAKGVETADKVLKGEKVQAKYPVDLKLVVKQ [D240A]	51.2 °C and 51.3 °C	–
MNMKKLATLVSAVALSATVSANAMAKDTIALVVSTLNNPFFVSLKDGAQKEADKLGYNLVVLDSQNNPAKELANVQDLTVRGTKILLINPTDSDAVGNAVKMANQANIPVITLDRQATKGEVVSHIASDNVLGGKIAGDYIAKKAGEGAKVIELQGIAGTSAARERGEGFQQAVAAHKFNVLASQPADFDRIKGLNVMQNLLTAHPDVQAVFAQNDEMALGALRALQTAGKSDVMVVGFDGTPDGEKAVNDGKLAATIAALPDQIGAKGVETADKVLKGEKVQAKYPVDLKLVVKQ [Q260A]	58.2 °C and 58.9 °C	–
MNMKKLATLVSAVALSATVSANAMAKDTIALVVATLNNPFFVSLKDGAQKEADKLGYNLVVLDSQNNPAKELANVQDLTVRGTKILLINPTDSDAVGNAVKMANQANIPVITLDRQATKGEVVSHIASDNVLGGKIAGDYIAKKAGEGAKVIELQGIAGTSAARERGEGFQQAVAAHKFNVLASQPADFDRIKGLNVMQNLLTAHPDVQAVFAQNDEMALGALRALQTAGKSDVMVVGFDGTPDGEKAVNDGKLAATIAQLPDQIGAKGVETADKVLKGEKVQAKYPVDLKLVVKQ [S34A]	–	-1.5 °C and 0.1 °C
MNMKKLATLVSAVALSATVSANAMAKDTIALVVATLNNPFFVSLKDGAQKEADKLGYNLVVLDSQNNPAKELANVQDLTVRGTKILLINPTDSDAVGNAVKMANQANIPVITLDRQATKGEVVSHIASDNVLGGKIAGDYIAKKAGEGAKVIELQGAAGTSAARERGEGFQQAVAAHKFNVLASQPADFDRIKGLNVMQNLLTAHPDVQAVFAQNDEMALGALRALQTAGKSDVMVVGFDGTPDGEKAVNDGKLAATIAQLPDQIGAKGVETADKVLKGEKVQAKYPVDLKLVVKQ [S34A I157A]	–	-0.7 °C and 2.4 °C
